Our source for the A450 values is patent publication US20210346432A1.

The target of one assay is T1, ET140-p25 (human).
T1 sequence (peptide, N-terminal biotin): SGSGLRCSSNTPPLTCQRY
The assay is described as follows: peptide ELISA on streptavidin plate, antibody 1 ug/mL. For orientation: In an ELISA, binding on a coated surface is turned into a signal by an enzyme label.

The target in the next assay is T2, ET140-p26 (human).
T2 sequence (peptide, N-terminal biotin): SGSGRCSSNTPPLTCQRYC
The description is as above.

B1: ET140-153 mIgG1 (antibody, V domains shown)
VH: QVQLVQSGAEVKKPGSSVKVSCKASGGTFSSYAISWVRQAPGQGLEWMGRIIPILGIANYAQKFQGRVTITADKSTSTAYMELSSLRSEDTAVYYCARGGYYSHDMWSEDWGQGTLVTVSS
VL: LPVLTQPPSASGTPGQRVTISCSGRSSNIGSNSVNWYRQLPGAAPKLLIYSNNQRPPGVPVRFSGSKSGTSASLAISGLQSEDEATYYCATWDDNLNVHYVFGTGTKVTVLG
Take B1: the figures for the A450 with ET140-p25 (human) and with ET140-p26 (human) were 0.583 and 0.225, respectively.
